# Measurements from the supplement of paper PMC7877785.
# ± gives the uncertainty stated by the source.
# Test: self-splicing fitness, log relative to wild type (ln ratio); higher = more splicing; Tetrahymena group I intron in knt gene, E. coli kanamycin selection, DiMSum; sequences stand for … in CUCUCU…GGAGGGAAAAGUUAUCAGGCAUGCACCUGGUAGCUAGUCUUUAAACCAAUAGAUUGCAUCGGUUUAAAAGGCAAGACCGUCAAAUUGCGGGAAAGGGGUCAACAGCCGUUCAGUACCAAGUCUCAGGGGAAACUUUGAGAUGGCCUUGCAAAGGGUAUGGUAAUAAGCUGACGGACAUGGUCCUAACCACGCAGCCAAGUCCUAAGUCAACAGAUCUUCUGUUGAUAUGGAUGCAGUUCACAGACUAAAUGUCGGUCGGGGAAGAUGUAUUCUUCUCAUAAGAUAUAGUCGGACCUCUCCUUAAUGGGAGCUAGCGGAUGAAGUGAUGCAACACUGGAGCCGCUGGGAACUAAUUUGUAUGCGAAAGUAUAUUGAUUAGUUUUGGAGUACUCGUGGUCG
# In short: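 Six replicate transformations of E. coli BL21(DE3) with a pET-22b(+) library were grown overnight at 37°C or 30°C. The library randomised all eight P1ex-region intron nucleotides, the intron lying in the knt kanamycin-resistance gene, and plates were LB agar with or without 25 μg/mL kanamycin plus 100 μg/mL carbenicillin, 50 μM IPTG and 0.2% rhamnose. Pooled colonies were amplicon-sequenced on an Illumina HiSeq 2500, and fitness is the DiMSum error-weighted combination of wild-type-normalised replicate fold changes, kanamycin versus none.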
Sequence,self-splicing fitness (ln) (30 °C),self-splicing fitness (ln) (37 °C)
UAACAGCAAUAUUACGAGGA,-3.13 ± 0.2,-1.49 ± 0.14
UAACAGCAAUAUUACGAUAU,-2.28 ± 0.18,-1.28 ± 0.2
UAACAGCAAUAUUACGCAUG,-1.43 ± 0.086,-0.695 ± 0.099
UAACAGCAAUAUUACGCCCU,-1.18 ± 0.08,0.471 ± 0.12
UAACAGCAAUAUUACGCCUA,-0.308 ± 0.064,0.598 ± 0.083
UAACAGCAAUAUUACGCCUG,-0.264 ± 0.085,0.182 ± 0.11
UAACAGCAAUAUUACGCGAA,-1.9 ± 0.11,-0.949 ± 0.11
UAACAGCAAUAUUACGCUAU,-2.86 ± 0.12,-1.82 ± 0.11
UAACAGCAAUAUUACGCUGA,-3.33 ± 0.2,-1.61 ± 0.1
UAACAGCAAUAUUACGGAAA,-2.91 ± 0.23,-1.11 ± 0.14
UAACAGCAAUAUUACGGAGG,-3.85 ± 0.16,-1.87 ± 0.091
UAACAGCAAUAUUACGGCAG,-0.752 ± 0.077,-0.814 ± 0.084
UAACAGCAAUAUUACGGGCA,-0.826 ± 0.085,-0.324 ± 0.078
UAACAGCAAUAUUACGGGGA,-2.36 ± 0.15,-2.1 ± 0.097
UAACAGCAAUAUUACGGUGU,-2.93 ± 0.11,-2.01 ± 0.12
UAACAGCAAUAUUACGUCAC,-2.97 ± 0.15,-1.82 ± 0.16
UAACAGCAAUAUUACGUCAU,-3.81 ± 0.16,-1.74 ± 0.15
UAACAGCAAUAUUACGUCCA,-0.357 ± 0.091,-0.0151 ± 0.12
UAACAGCAAUAUUACGUUGA,-2.95 ± 0.14,-1.34 ± 0.1
UAACAGCAAUAUUACGUUUA,-0.893 ± 0.063,-0.563 ± 0.071
UAACAGCAAUAUUACGUUUC,-4.16 ± 0.26,-2.44 ± 0.23
UAAGAGCAAUAUUACGAAUG,-2.32 ± 0.17,-1.52 ± 0.25
UAAGAGCAAUAUUACGACUG,-2 ± 0.14,-0.767 ± 0.15
UAAGAGCAAUAUUACGAGAU,-3.76 ± 0.33,-2.32 ± 0.31

Sequence,self-splicing fitness (ln) (30 °C),self-splicing fitness (ln) (37 °C)
UAAGAGCAAUAUUACGAGUC,-3.17 ± 0.49,
UAAGAGCAAUAUUACGAUAC,-3.55 ± 0.26,-3.09 ± 0.4
UAAGAGCAAUAUUACGCAUU,-2.87 ± 0.22,-2.32 ± 0.26
UAAGAGCAAUAUUACGCUCA,-2.37 ± 0.23,-1.54 ± 0.18
UAAGAGCAAUAUUACGGAUG,-2.57 ± 0.35,-2.59 ± 0.49
UAAGAGCAAUAUUACGGCGG,-2.73 ± 0.22,-1.62 ± 0.22
UAAGAGCAAUAUUACGGGUG,-3.49 ± 0.18,-1.06 ± 0.13
UAAGAGCAAUAUUACGGUAC,,-2.25 ± 0.41
UAAGAGCAAUAUUACGGUAU,-3.87 ± 0.23,-2.27 ± 0.18
UAAGAGCAAUAUUACGGUUU,-3.48 ± 0.24,-1.85 ± 0.23
UAAGAGCAAUAUUACGUCCG,-3.27 ± 0.41,
UAAGAGCAAUAUUACGUGCC,-3.13 ± 0.15,-3.48 ± 0.34
UAAGAGCAAUAUUACGUGGG,-3.82 ± 0.42,-2.68 ± 0.27
UAAUAGCAAUAUUACGAAAG,-1.92 ± 0.19,-2.03 ± 0.31
UAAUAGCAAUAUUACGACAG,-2.3 ± 0.19,-0.262 ± 0.17
UAAUAGCAAUAUUACGACCA,-0.451 ± 0.2,0.216 ± 0.31
UAAUAGCAAUAUUACGACCU,-1.69 ± 0.15,-0.4 ± 0.15
UAAUAGCAAUAUUACGAGCU,-3.02 ± 0.29,-1.79 ± 0.3
UAAUAGCAAUAUUACGCAAA,-2.03 ± 0.18,-1.27 ± 0.15
UAAUAGCAAUAUUACGCGGG,-3.18 ± 0.21,-1.65 ± 0.2
UAAUAGCAAUAUUACGCUAA,-2.11 ± 0.27,-1.39 ± 0.19
UAAUAGCAAUAUUACGGAAA,,-2.44 ± 0.26
UAAUAGCAAUAUUACGGAUA,-1.97 ± 0.17,-1.83 ± 0.2
UAAUAGCAAUAUUACGGGCA,-0.899 ± 0.2,-0.61 ± 0.19

Sequence,self-splicing fitness (ln) (30 °C),self-splicing fitness (ln) (37 °C)
UAAUAGCAAUAUUACGGUAC,-3.69 ± 0.43,-2.37 ± 0.37
UAAUAGCAAUAUUACGGUUA,-0.888 ± 0.11,-0.925 ± 0.091
UAAUAGCAAUAUUACGUCCG,-0.913 ± 0.23,-0.835 ± 0.2
UAAUAGCAAUAUUACGUCUU,-3.1 ± 0.17,-1.1 ± 0.11
UAAUAGCAAUAUUACGUGCU,-1.98 ± 0.1,-0.994 ± 0.1
UAAUAGCAAUAUUACGUUAG,-1.84 ± 0.094,-1.13 ± 0.12
UACAAGCAAUAUUACGAACA,-1.14 ± 0.11,-0.734 ± 0.097
UACAAGCAAUAUUACGAAGC,-3.39 ± 0.23,-2.74 ± 0.26
UACAAGCAAUAUUACGAAUA,-1.56 ± 0.087,-0.567 ± 0.1
UACAAGCAAUAUUACGACAG,-1.15 ± 0.092,-0.241 ± 0.11
UACAAGCAAUAUUACGACGC,-2.93 ± 0.25,-1.67 ± 0.23
UACAAGCAAUAUUACGACUG,-0.079 ± 0.063,0.278 ± 0.092
UACAAGCAAUAUUACGAGCA,-0.289 ± 0.067,-0.0424 ± 0.075
UACAAGCAAUAUUACGAGUU,-2.14 ± 0.069,-0.96 ± 0.074
UACAAGCAAUAUUACGCCAU,-3.15 ± 0.17,-2.62 ± 0.22
UACAAGCAAUAUUACGCCCC,-2.04 ± 0.49,
UACAAGCAAUAUUACGCGUC,-2.06 ± 0.1,-1.23 ± 0.14
UACAAGCAAUAUUACGCUCA,-0.545 ± 0.087,-0.0026 ± 0.12
UACAAGCAAUAUUACGCUGA,-2.32 ± 0.13,-1.78 ± 0.13
UACAAGCAAUAUUACGGAAA,-2.07 ± 0.24,-1.99 ± 0.27
UACAAGCAAUAUUACGGCAU,-1.49 ± 0.068,-0.705 ± 0.072
UACAAGCAAUAUUACGGCCC,-1.69 ± 0.31,-1.35 ± 0.44
UACAAGCAAUAUUACGGCCU,-1.09 ± 0.094,-0.547 ± 0.13
UACAAGCAAUAUUACGGCUU,-3.99 ± 0.16,-2.37 ± 0.15

Sequence,self-splicing fitness (ln) (30 °C),self-splicing fitness (ln) (37 °C)
UACAAGCAAUAUUACGGGAA,-2.41 ± 0.12,-1.6 ± 0.097
UACAAGCAAUAUUACGGGGA,-1.5 ± 0.12,-1.09 ± 0.13
UACAAGCAAUAUUACGGUCG,-0.0495 ± 0.068,-0.0985 ± 0.1
UACAAGCAAUAUUACGGUCU,-1.52 ± 0.052,-0.534 ± 0.065
UACAAGCAAUAUUACGGUGA,-1.28 ± 0.082,-0.89 ± 0.1
UACAAGCAAUAUUACGUCCC,-1.25 ± 0.39,-1.58 ± 0.42
UACAAGCAAUAUUACGUCCG,-0.564 ± 0.068,-0.0254 ± 0.091
UACAAGCAAUAUUACGUGAC,-3.89 ± 0.18,-1.85 ± 0.1
UACAAGCAAUAUUACGUUUU,-3.05 ± 0.11,-2.32 ± 0.12
UACCAGCAAUAUUACGAUCG,-0.0679 ± 0.046,-0.31 ± 0.06
UACCAGCAAUAUUACGCCUC,-2.32 ± 0.19,-0.554 ± 0.18
UACCAGCAAUAUUACGCGGU,-4.05 ± 0.17,-3.47 ± 0.2
UACCAGCAAUAUUACGGAAU,-2.32 ± 0.093,-1.5 ± 0.1
UACCAGCAAUAUUACGGAGC,-3 ± 0.15,-3.22 ± 0.27
UACCAGCAAUAUUACGGAUC,-1.46 ± 0.058,0.242 ± 0.084
UACCAGCAAUAUUACGGGCC,-2.22 ± 0.1,-1.2 ± 0.11
UACCAGCAAUAUUACGGGCG,-0.359 ± 0.072,-0.277 ± 0.079
UACCAGCAAUAUUACGGGUC,-2.46 ± 0.13,-1.99 ± 0.18
UACCAGCAAUAUUACGGUCG,-0.769 ± 0.064,0.485 ± 0.091
UACCAGCAAUAUUACGGUUU,-0.896 ± 0.056,-0.463 ± 0.065
UACCAGCAAUAUUACGUCAU,-2.21 ± 0.085,-1.52 ± 0.088
UACCAGCAAUAUUACGUGAC,-3.12 ± 0.13,-1.12 ± 0.14
UACCAGCAAUAUUACGUUAA,-1.36 ± 0.073,-0.903 ± 0.081
UACCAGCAAUAUUACGUUUC,-4 ± 0.28,-2.56 ± 0.22
